The results in this text go back to the supplement of paper PMC12042874.

± gives the uncertainty stated by the source.

The nature of the series: amyloid nucleation score (Sup35N fusion, yeast selection) (log enrichment); library NNK1; higher = more nucleation; inactive = no reads after selection. In outline:
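The nucleation score is the log enrichment of output over input reads, calculated with DiMSum and centred on the mode score of non-aggregating sequences. Sequences with under 100 input reads were excluded. Reads came from Illumina sequencing of plasmid inserts from psi-negative yeast expressing Sup35N fused to peptides of 20 random codons, induced 24 hours with 100 μM copper sulfate and grown 7 days at 30°C without adenine and uracil.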
Take NWSHGLLTPNVCW: the amyloid nucleation score is -0.573 ± 1.4.
As to NWVAYIPKDNVWVVRGKLKG, the amyloid nucleation score came out at 0.753 ± 0.53.
Next, NWVRLFQFILTRYSAFAHFR: -0.264 ± 0.34; NYALGFRAAWIIRLLRWSVE: 0.254 ± 0.57.
For NYEYRDYASDERLYGSGTML, the amyloid nucleation score was 0.103 ± 0.37.
Next, NYFTRFVTGDGLSFLMRVAT: 0.487 ± 0.82; NYHFDWLRFFRHQREVGEVA: 0.4 ± 0.8; NYIGYLYLFDFCEHDLCRCF: 6.62 ± 0.074.
Next, NYQWIRIVIMYVLSMTASLS: “inactive”; NYRSGVLELWYGRSMPWS: 0.327 ± 0.42; NYTTSMNPLHFVACK: “inactive”.
The substance NYVEVINNFHAFVRVLFEIL came in with an amyloid nucleation score of 4.09 ± 0.15.
Next, NYYDSRFGLHIVLELWVARL: 0.431 ± 0.2.
Next, NYYFAKSLLHI: 1.27 ± 0.79; NYYIRRTCMSTYYVRVLIKS: 0.522 ± 0.39.
PAGTGINLMICVARGGRTSG: the amyloid nucleation score stood at 5.24 ± 0.1.
On to PAMLPLTAMFLLHGRYVLTP, for which the amyloid nucleation score was -0.384 ± 0.8.
Next, PATELLYNVCGGY: 0.044 ± 0.38; PAVIILVIKMHGGIKGKDGR: -0.755 ± 0.44; PCCWLPRGDTLDYTQHR: -0.065 ± 0.98.
Next, PCKSCGLKFTRW: 0.235 ± 0.39.
As for PCLLCVYCMFL, the amyloid nucleation score stood at 4.53 ± 0.055.
Next, PCPSINWLMIINNR: 7.743 ± 0.051.
Next, PCQFMASSYFHK: “inactive”; PCTGLRHGLHEFMSRYPDRD: 0.215 ± 0.97.
Next, PDSARSECAGRVNLFVFRAR: 0.559 ± 0.32; PDSFCFTMHLRKDEMMTSCK: -0.053 ± 1.
On to PEHRSGNKNMYLYRSRDDMN, for which the amyloid nucleation score was determined as 0.012 ± 0.7.
In the case of PERNNEYHVMLTRHRCHQGC, the amyloid nucleation score is -1.41 ± 2.4.
Next, PFCGTFVCGVGLWIRVNCNR: 0.728 ± 0.74.
Next, PFFWFH: -0.482 ± 0.26; PFIWDDLAETVLNK: 0.144 ± 0.27.
Next, PFMLRSNGQWTSYINCIFIS: 7.865 ± 0.068; PFNMVWMRKYHLRSR: -0.378 ± 0.34; PFRNKNQMRWDMKM: 0.209 ± 0.37.
With PFSGFLCSRVCAMVDKTLFS, the amyloid nucleation score result was “inactive”.
Next, PFTVTKFRSYEISVINLPNW: 1.34 ± 0.11; PFVARQHMNPFTVVGTNLCH: -0.376 ± 1.9.
Next, PFVDVTRHRNSPS: 1.01 ± 1; PFYLDSGADVTEPGHLGFYG: 0.158 ± 0.37; PFYSETDDSRYIDVRRVFCF: “inactive”.
Next, PGARSLLGSYYV: 0.058 ± 0.84; PGNGTGVSTDGWVTLMHRRR: -0.709 ± 0.53.
As for PGPRVNHTRCVM, the amyloid nucleation score was 1.52 ± 0.85.
Next, PGRYSISGSEHMPVYLYTFH: “inactive”.
For the substance PGSWVTESLMTYRLCNLSNV, the amyloid nucleation score came out at 0.455 ± 0.35.
For PGWYFDTGSAPLQVSRRSGL, the amyloid nucleation score came to 0.66 ± 0.63.
Next, PHFLGQFYSDVPCDCGLCWY: 0.193 ± 0.9; PHGHVEYLIFFCNKPGSHGS: 1.49 ± 0.3.
For the substance PHQPRILM, the amyloid nucleation score is -0.387 ± 0.36.
Regarding PHSMYCGETWLSLDCQMQFM, the amyloid nucleation score was -0.009 ± 0.74.
Next, PHYFFS: -0.593 ± 0.39; PIGLMGFRLSSICLSIRTLP: -0.469 ± 0.65.
Next, PIMWCWHAVMSLS: “inactive”.
Next, PISSGNCSTRLGSFSSWYSV: -0.485 ± 0.68; PITILVVFNLQKY: 6.242 ± 0.046; PKFCWAWSYALMGNKNLKSC: -0.715 ± 0.34.
PKMGSGHSWTRGQYICHS returned an amyloid nucleation score of -0.301 ± 1.1.
Consider PLCPSGRNYVS, for which the amyloid nucleation score was -0.159 ± 0.25.
Next, PLFNNSRRCWGFGSLEDYLL: 0.213 ± 0.53; PLLGASSRYDHAMLCGNRTF: 0.127 ± 0.33; PLLMGEEFRYSFSLCYNTSS: -0.548 ± 1.7.
PLLVYIFNFHCYHLVNAMTV registered an amyloid nucleation score of 2.2 ± 0.32.
Turning to PLLYLPNWLISCFYLLF, the amyloid nucleation score was 0.263 ± 0.53.
The substance PLPVVA gave an amyloid nucleation score of 0.225 ± 0.5.
The substance PMVRMQYDPYIKTMCVVWMR yielded an amyloid nucleation score of -0.195 ± 1.2.
For the substance PNDSYNGL, the amyloid nucleation score is -0.421 ± 0.46.
Next, PNYEVDCDMFYSSFVGGFRV: 0.173 ± 1.4.
The substance PPHIRKAGMRTFMGGLGLRG gave an amyloid nucleation score of 0.619 ± 0.67.
Regarding PQGSVGLEFKNYCVRAACGF, the amyloid nucleation score came out at 0.078 ± 0.93.
Next, PQKHSFAWHRMVATLALSYR: 1.17 ± 0.93; PQRRGHIRIDRILSSTWTVA: 0.197 ± 0.39.
On to PRYMTLGVVWSMSGWSESVQ, for which the amyloid nucleation score is 1.04 ± 0.52.
Next, PSFNLNFVRINLQDGNMRLS: 7.038 ± 0.048; PSGCFVWEML: “inactive”.
Regarding PSLYACGQKPRSEALDARWL, the amyloid nucleation score entry is “inactive”.
Next, PSYHGYLGLSNPVRYRMCV: 0.197 ± 0.28.
PTETVMMRRIFGSRGPWYAV gave an amyloid nucleation score of 0.286 ± 1.4.
Next, PTRDCRVNKGSLMWTP: -0.213 ± 0.59; PTRPMTTELRRKVRRPALDG: -0.139 ± 0.62; PTSLLLGINYCLFWSIYLRD: 1.81 ± 0.16.
Next, PTSSGNATAWRNLNLLLCEL: 0.328 ± 0.97.
On to PVARTPHWVLAVRWHALIWG, for which the amyloid nucleation score stood at 1.4 ± 0.29.
Turning to PVDFNQYVVSGLQDLLHYAG, the amyloid nucleation score result is “inactive”.
Next, PVGYYILGMNGRVMNWSQRQ: 1.73 ± 0.52; PVKGGVMGF: -0.35 ± 1.4; PVLSTYFHAKLQNTWMPGNR: -0.941 ± 0.77.
Substance PWKWF displayed an amyloid nucleation score of -0.224 ± 0.43.
Next, PWSALTASGTKISSSKSRLG: -0.331 ± 0.93; PYAAGENWWMCLQRVPVTIV: 0.027 ± 0.67.
Next, PYCFYPRCC: 0.015 ± 0.85.
Regarding PYFLGGRA, the amyloid nucleation score was -0.809 ± 2.1.
Next, PYKTWRYSSRIFYWAALPMV: -0.842 ± 1.7.
Next, PYMVSGSWPKFRT: 0.041 ± 0.58.
Substance PYSWVEKASY showed an amyloid nucleation score of -0.322 ± 0.78.
Take PYWVYEHSTC: the amyloid nucleation score was -0.726 ± 0.63.
Next, QAKGLALLCV: -2.17 ± 2.7; QCANAVNHRTLGLMLFKMVL: 0.19 ± 0.5.
Next, QCHVVDFRRKYLELRSSLRY: “inactive”.
In the case of QCKRFCCIWVCNADFVAGAW, the amyloid nucleation score was 7.745 ± 0.045.
On to QCMARVSQFFWFMLTWK, for which the amyloid nucleation score is 0.748 ± 0.27.
Next, QCMSMSYPFMPRTHQRTVLK: -0.179 ± 0.31; QCVGPSVCVFVHRLVGCYRA: 3.34 ± 0.098; QDTRTLQGCRQWQRWITAEG: 0.678 ± 0.84.
Next, QFFLNTRLSLFALYL: 5.35 ± 0.059; QFSCFMMFIIYE: 4.16 ± 0.064; QFTRLCMLRNTLFTVVENQA: 0.383 ± 0.65.
Consider QFVMINYSSSNVASPNLLRI, for which the amyloid nucleation score turned out to be 0.94 ± 0.3.
Next, QFVQAGRKLGNNVDGWKYVC: -0.997 ± 0.5.
Next, QFYKGRNSFNERSSSNVLRY: “inactive”; QGAGILTYPRALRHWVVRRM: 0.12 ± 0.51; QGCMATYSGVGDACWGVRVS: 0.678 ± 0.56.
Consider QGFRVWKLNTIKRHSWMGFA, for which the amyloid nucleation score amounted to 0.772 ± 0.44.
Consider QGPVGVSYILHDFIIML, for which the amyloid nucleation score came out at 5.94 ± 0.093.
Substance QGSDASVGTAVGSTWEVCCC returned an amyloid nucleation score of -0.334 ± 0.36.
As to QHCARTAGVSVARVVVSNCG, the amyloid nucleation score was 0.161 ± 0.41.
Next, QHTFQAMISKSNVSEMSPGT: -0.174 ± 0.59; QHVFWIYPLPTLSSYGTARS: -0.227 ± 1.9.
Next, QISSTRIDW: -0.074 ± 0.32.
As to QKMYDILVIDLYESGDRPFV, the amyloid nucleation score was 0.532 ± 0.29.
Consider QKSLSVEPDAH, for which the amyloid nucleation score is -0.557 ± 0.37.
In turn, QLLSRLGIS displayed an amyloid nucleation score of -0.641 ± 1.4.
Next, QLPAFGINMSRLSNSCSYGC: 0.095 ± 0.59; QLTSACWYAVTGGGSTAGEG: -0.965 ± 1.4; QLVKSVY: -0.166 ± 0.35.
Next, QMGIMFALILQMYFSKFQDW: -0.182 ± 0.21.
Next, QMKVISLVRHE: “inactive”; QNIGGFMARFIIFILLYDHW: 0.714 ± 0.84; QNIYFFKCAKHSKVNRSDMS: 1.91 ± 0.55.
As for QNSENMFDINVLTWGCHMAM, the amyloid nucleation score result is “inactive”.
As for QPFTWVLQKNTRT, the amyloid nucleation score is 0.714 ± 0.58.
Next, QPSKCGAWGPLFIAGVGLTQ: 0.231 ± 0.33; QRFQAGPCRFSE: -0.394 ± 0.95; QRFRTLCNLVFYLGSKVRET: 0.317 ± 0.3.
Next, QRHSLNDNCRCLRYPQHSPN: 1.07 ± 0.73; QRIVTG: -0.123 ± 0.59.
For the substance QRRYRDTAGLNRNIRNICSK, the amyloid nucleation score was -0.257 ± 0.72.
Next, QSAAFIIDLLTVFRKMEEVM: -0.666 ± 0.66.
